Targets include AHNAK2, Q8IVF2; MAGI1_4, Q96QZ7; MAGI1_6, Q96QZ7; MAGI3_6, Q5TCQ9; PARD3B_3, Q8TEW8; PDLIM4, P50479; RIMS1, Q86UR5; RIMS2, Q9UQ26; SCRIB_4, Q14160.
Common to all, as to experiment: holdup assay
Common to all, as to parameters: key: below the threshold = too weak to quantify, mostly under pKd 3.1 to 4

Another test deals with T1, GIPC1, O14908.
T1 sequence (O14908 128-223, limits assumed, looked up): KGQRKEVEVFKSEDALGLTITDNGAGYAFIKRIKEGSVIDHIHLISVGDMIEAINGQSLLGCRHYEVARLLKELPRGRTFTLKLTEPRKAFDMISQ

The target of a further test is T2, MPDZ_11, O75970.
T2 sequence (O75970 1720-1817, limits assumed, looked up): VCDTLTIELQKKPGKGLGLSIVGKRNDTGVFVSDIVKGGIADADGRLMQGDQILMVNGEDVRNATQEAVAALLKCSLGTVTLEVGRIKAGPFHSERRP

The next test concerns the target T3, MPDZ_7, O75970.
T3 sequence (O75970 1146-1253, limits assumed, looked up): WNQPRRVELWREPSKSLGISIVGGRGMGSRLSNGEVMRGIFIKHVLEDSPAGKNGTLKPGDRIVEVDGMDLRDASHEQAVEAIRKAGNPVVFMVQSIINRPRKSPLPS

The target of the next test is T4, MPP1, Q00013.
T4 sequence (Q00013 66-162, limits assumed, looked up): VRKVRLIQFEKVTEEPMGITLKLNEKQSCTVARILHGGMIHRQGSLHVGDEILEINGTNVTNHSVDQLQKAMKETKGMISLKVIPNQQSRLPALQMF

For another test, the target named is T5, NHERF1_1, O14745.
T5 sequence (O14745 9-104, limits assumed, looked up): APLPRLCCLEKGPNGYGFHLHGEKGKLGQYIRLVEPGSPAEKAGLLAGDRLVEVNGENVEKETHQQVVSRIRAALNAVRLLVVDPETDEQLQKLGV

Another test addresses T6, PDLIM3, Q53GG5.
T6 sequence (Q53GG5 1-94, limits assumed, looked up): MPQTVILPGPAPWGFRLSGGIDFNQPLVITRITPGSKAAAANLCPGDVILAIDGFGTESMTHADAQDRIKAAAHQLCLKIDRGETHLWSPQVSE

A further test concerns the target T7, PDZD2_4, O15018.
T7 sequence (O15018 723-823, limits assumed, looked up): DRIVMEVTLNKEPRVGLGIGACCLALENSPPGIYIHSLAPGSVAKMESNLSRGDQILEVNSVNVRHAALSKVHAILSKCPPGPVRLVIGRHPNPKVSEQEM

For the next test, the target named is T8, PDZD2_5, O15018.
T8 sequence (O15018 2617-2716, limits assumed, looked up): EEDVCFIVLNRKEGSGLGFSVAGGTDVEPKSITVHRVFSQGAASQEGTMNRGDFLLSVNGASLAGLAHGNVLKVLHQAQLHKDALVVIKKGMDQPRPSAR

The next test concerns the target T9, PDZD7_2, Q9H5P4.
T9 sequence (Q9H5P4 205-303, limits assumed, looked up): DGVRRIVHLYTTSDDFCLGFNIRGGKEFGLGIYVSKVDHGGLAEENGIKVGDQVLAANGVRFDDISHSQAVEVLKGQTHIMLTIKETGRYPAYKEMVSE

A further test concerns the target T10, PDZD8, Q8NEN9.
T10 sequence (Q8NEN9 361-459, limits assumed, looked up): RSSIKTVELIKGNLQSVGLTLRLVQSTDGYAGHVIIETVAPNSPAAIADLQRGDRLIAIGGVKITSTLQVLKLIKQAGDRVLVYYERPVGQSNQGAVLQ

Another test concerns the target T11, SHANK2, Q9UPX8.
T11 sequence (Q9UPX8 621-730, limits assumed, looked up): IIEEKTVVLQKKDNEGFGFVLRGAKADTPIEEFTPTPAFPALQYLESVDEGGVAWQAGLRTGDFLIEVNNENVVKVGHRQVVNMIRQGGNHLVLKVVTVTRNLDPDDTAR

Another test has as its target T12, SIPA1L3, O60292.
T12 sequence (O60292 961-1052, limits assumed, looked up): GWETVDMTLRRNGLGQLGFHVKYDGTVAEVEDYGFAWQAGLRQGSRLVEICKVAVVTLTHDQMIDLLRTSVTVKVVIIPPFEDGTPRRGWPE

In the next test the target is T13, SNTB2, Q13425.
T13 sequence (Q13425 110-208, limits assumed, looked up): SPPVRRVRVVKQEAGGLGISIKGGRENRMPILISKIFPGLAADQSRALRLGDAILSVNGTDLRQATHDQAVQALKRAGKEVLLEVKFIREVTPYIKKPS

The target of the next test is T14, USH1C_1, Q9Y6N9.
T14 sequence (Q9Y6N9 82-179, limits assumed, looked up): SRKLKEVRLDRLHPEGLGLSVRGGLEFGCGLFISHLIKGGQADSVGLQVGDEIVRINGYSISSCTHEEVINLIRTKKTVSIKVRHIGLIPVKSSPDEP

The mark [1] stands for this setting: plain residues with an end cap or a label only (N-terminal biotin on a linker: none).
[2] abbreviates: plain residues with an end cap or a label only (N-terminal biotin on a linker: ttds).

In PMC9482650, “Quantitative fragmentomics allow affinity mapping of interactomes” (Nature Communications, 2022) one finds pKd data, which are given here for four molecules.

Usually pKd stands for the Kd on a negative log10 scale, so that one unit is a factor of ten.

RIMS2, Q9UQ26, sequence (Q9UQ26 637-758): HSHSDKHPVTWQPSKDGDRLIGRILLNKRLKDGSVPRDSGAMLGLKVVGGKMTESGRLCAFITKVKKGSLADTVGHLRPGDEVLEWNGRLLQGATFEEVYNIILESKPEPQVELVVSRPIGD
MAGI3_6, Q5TCQ9, sequence (Q5TCQ9 1014-1103): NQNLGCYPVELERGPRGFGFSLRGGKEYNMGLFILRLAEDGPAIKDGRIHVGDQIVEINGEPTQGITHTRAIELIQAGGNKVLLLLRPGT
AHNAK2, Q8IVF2, sequence (Q8IVF2 108-193): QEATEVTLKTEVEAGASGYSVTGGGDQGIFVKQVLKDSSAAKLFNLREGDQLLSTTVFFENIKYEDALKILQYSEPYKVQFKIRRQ
MAGI1_6, Q96QZ7, sequence (Q96QZ7 1146-1238): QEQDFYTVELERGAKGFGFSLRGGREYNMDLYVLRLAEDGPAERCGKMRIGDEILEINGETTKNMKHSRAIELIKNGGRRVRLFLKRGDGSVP
PDLIM4, P50479, sequence (P50479 1-83): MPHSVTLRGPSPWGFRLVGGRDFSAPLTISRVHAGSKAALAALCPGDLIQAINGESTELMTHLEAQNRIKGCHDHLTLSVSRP
SCRIB_4, Q14160, sequence (Q14160 1095-1204): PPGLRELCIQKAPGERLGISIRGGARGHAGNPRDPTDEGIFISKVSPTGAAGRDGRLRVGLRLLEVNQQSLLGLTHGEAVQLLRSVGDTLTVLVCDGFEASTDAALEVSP
PARD3B_3, Q8TEW8, sequence (Q8TEW8 490-594): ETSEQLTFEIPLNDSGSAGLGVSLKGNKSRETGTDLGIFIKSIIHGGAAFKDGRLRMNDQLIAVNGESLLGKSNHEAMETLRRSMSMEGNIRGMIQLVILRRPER
RIMS1, Q86UR5, sequence (Q86UR5 584-692): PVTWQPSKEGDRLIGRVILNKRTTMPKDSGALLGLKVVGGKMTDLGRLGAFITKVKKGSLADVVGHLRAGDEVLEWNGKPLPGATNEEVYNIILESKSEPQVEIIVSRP
MAGI1_4, Q96QZ7, sequence (Q96QZ7 other isoform, or with tags, fused parts or gaps): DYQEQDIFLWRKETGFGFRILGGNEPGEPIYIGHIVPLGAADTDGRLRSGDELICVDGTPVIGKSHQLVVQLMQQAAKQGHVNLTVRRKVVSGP

B1: MERS-E, K9N5R3 (peptide)
chain: DSKPPLPPDEWV
With B1, the pKd result is “below the threshold” with AHNAK2, Q8IVF2 (setting [1]); “below the threshold” in the test with GIPC1, O14908 (setting [1]); “below the threshold” with MAGI1_4, Q96QZ7 (setting [1]); 4.66 with MAGI1_6, Q96QZ7 (setting [1]); 4.03 in the test with MAGI3_6, Q5TCQ9 (setting [1]); “below the threshold” with MPDZ_11, O75970 (setting [1]). The pKd was 3.83 in the test with MPDZ_7, O75970 (setting [1]); “below the threshold” in the test with MPP1, Q00013 (setting [1]); “below the threshold” in the test with NHERF1_1, O14745 (setting [1]); “below the threshold” with PARD3B_3, Q8TEW8 (setting [1]); “below the threshold” with PDLIM3, Q53GG5 (setting [1]); 3.83 with PDLIM4, P50479 (setting [1]). Also, the negative-log Kd (pKd) entry in the test with PDZD2_4, O15018 (setting [1]) was “below the threshold”; with PDZD2_5, O15018 (setting [1]), “below the threshold”; with PDZD7_2, Q9H5P4 (setting [1]), “below the threshold”; with PDZD8, Q8NEN9 (setting [1]), “below the threshold”; with RIMS1, Q86UR5 (setting [1]), 4.38; in the test with RIMS2, Q9UQ26 (setting [1]) it was 4.39. In addition, the negative-log Kd (pKd) in the test with SCRIB_4, Q14160 (setting [1]) was 3.92; with SHANK2, Q9UPX8 (setting [1]), “below the threshold”; in the test with SIPA1L3, O60292 (setting [1]), 3.73; with SNTB2, Q13425 (setting [1]), “below the threshold”; with USH1C_1, Q9Y6N9 (setting [1]) it was “below the threshold”.

B2: DGKK, Q5KSL6 (peptide)
chain: DPLTPSRSQL
As to B2, the negative-log Kd (pKd) result is given as “below the threshold” in the test with AHNAK2, Q8IVF2 (setting [2]); “below the threshold” with GIPC1, O14908 (setting [2]); “below the threshold” in the test with MAGI1_4, Q96QZ7 (setting [2]); “below the threshold” with MAGI1_6, Q96QZ7 (setting [2]); “below the threshold” with MAGI3_6, Q5TCQ9 (setting [2]); “below the threshold” in the test with MPDZ_11, O75970 (setting [2]). Besides, the pKd entry was “below the threshold” in the test with MPDZ_7, O75970 (setting [2]); “below the threshold” in the test with MPP1, Q00013 (setting [2]); “below the threshold” with NHERF1_1, O14745 (setting [2]); “below the threshold” in the test with PARD3B_3, Q8TEW8 (setting [2]); “below the threshold” in the test with PDLIM3, Q53GG5 (setting [2]); “below the threshold” with PDLIM4, P50479 (setting [2]). Further, the negative-log Kd (pKd) entry with PDZD2_4, O15018 (setting [2]) is listed as “below the threshold”; in the test with PDZD2_5, O15018 (setting [2]), “below the threshold”; in the test with PDZD7_2, Q9H5P4 (setting [2]), “below the threshold”; in the test with PDZD8, Q8NEN9 (setting [2]), “below the threshold”; in the test with RIMS1, Q86UR5 (setting [2]), “below the threshold”; in the test with RIMS2, Q9UQ26 (setting [2]) it was “below the threshold”. Further, the negative logarithm of the Kd (pKd) entry in the test with SCRIB_4, Q14160 (setting [2]) is recorded as “below the threshold”; in the test with SHANK2, Q9UPX8 (setting [2]) it was “below the threshold”; in the test with SIPA1L3, O60292 (setting [2]), “below the threshold”; in the test with SNTB2, Q13425 (setting [2]), “below the threshold”; with USH1C_1, Q9Y6N9 (setting [2]) it was “below the threshold”.

B3: ASIC3, Q9UHC3 (peptide)
chain: HRTCYLVTQL
For B3, the pKd entry in the test with AHNAK2, Q8IVF2 (setting [2]) is “below the threshold”; with GIPC1, O14908 (setting [2]), “below the threshold”; with MAGI1_4, Q96QZ7 (setting [2]), “below the threshold”; with MAGI1_6, Q96QZ7 (setting [2]) it was “below the threshold”; with MAGI3_6, Q5TCQ9 (setting [2]), “below the threshold”; in the test with MPDZ_11, O75970 (setting [2]), “below the threshold”. Besides, the negative logarithm of the Kd (pKd) with MPDZ_7, O75970 (setting [2]) is 4.73; with MPP1, Q00013 (setting [2]) it was 4.4; with NHERF1_1, O14745 (setting [2]) it was 5.23; with PARD3B_3, Q8TEW8 (setting [2]), “below the threshold”; with PDLIM3, Q53GG5 (setting [2]), “below the threshold”; in the test with PDLIM4, P50479 (setting [2]), “below the threshold”. Further, the pKd result with PDZD2_4, O15018 (setting [2]) is reported as “below the threshold”; in the test with PDZD2_5, O15018 (setting [2]) it was “below the threshold”; in the test with PDZD7_2, Q9H5P4 (setting [2]), “below the threshold”; with PDZD8, Q8NEN9 (setting [2]), “below the threshold”; with RIMS1, Q86UR5 (setting [2]) it was “below the threshold”; with RIMS2, Q9UQ26 (setting [2]), “below the threshold”. In addition, the pKd entry was “below the threshold” in the test with SCRIB_4, Q14160 (setting [2]); 4.93 with SHANK2, Q9UPX8 (setting [2]); “below the threshold” with SIPA1L3, O60292 (setting [2]); “below the threshold” with SNTB2, Q13425 (setting [2]); “below the threshold” with USH1C_1, Q9Y6N9 (setting [2]).

B4: DGKZ, Q13574 (peptide)
chain: IQREDQETAV
As for B4, the negative-log Kd (pKd) result was “below the threshold” with AHNAK2, Q8IVF2 (setting [2]); 4.92 with GIPC1, O14908 (setting [2]); “below the threshold” with MAGI1_4, Q96QZ7 (setting [2]); 4.35 in the test with MAGI1_6, Q96QZ7 (setting [2]); “below the threshold” with MAGI3_6, Q5TCQ9 (setting [2]); “below the threshold” with MPDZ_11, O75970 (setting [2]). The negative logarithm of the Kd (pKd) entry with MPDZ_7, O75970 (setting [2]) is listed as “below the threshold”; with MPP1, Q00013 (setting [2]), “below the threshold”; with NHERF1_1, O14745 (setting [2]), “below the threshold”; with PARD3B_3, Q8TEW8 (setting [2]), “below the threshold”; in the test with PDLIM3, Q53GG5 (setting [2]), “below the threshold”; in the test with PDLIM4, P50479 (setting [2]), “below the threshold”. In addition, the pKd result with PDZD2_4, O15018 (setting [2]) is “below the threshold”; with PDZD2_5, O15018 (setting [2]) it was “below the threshold”; in the test with PDZD7_2, Q9H5P4 (setting [2]) it was “below the threshold”; with PDZD8, Q8NEN9 (setting [2]), “below the threshold”; with RIMS1, Q86UR5 (setting [2]), “below the threshold”; in the test with RIMS2, Q9UQ26 (setting [2]) it was “below the threshold”. Further, the pKd is 4.4 with SCRIB_4, Q14160 (setting [2]); “below the threshold” in the test with SHANK2, Q9UPX8 (setting [2]); “below the threshold” with SIPA1L3, O60292 (setting [2]); 5.16 in the test with SNTB2, Q13425 (setting [2]); “below the threshold” in the test with USH1C_1, Q9Y6N9 (setting [2]).
